Data taken from patent publication US20180303913A1.
Where “and” joins values, the source holds several entries; their conditions need not be identical. Equal values may be shown once.

B1: Elongator complex protein 4 (protein)
chain: MAAVATCGSVAASTGSAVATASKSNVTSFQRRGPRASVTNDSGPRLVSIAGTRPSVRNGQLLVSTGLPALDQLLGGGLAVGTVLLIEEDKYNIYSPLLFKYFLAEGIVNGHTLLVASAKEDPANILQELPAPLLDDKCKKEFDEDVYNHKTPESNIKMKIAWRYQLLPKMEIGPVSSSRFGHYYDASKRMPQELIEASNWHGFFLPEKISSTLKVEPCSLTPGYTKLLQFIQNIIYEEGFDGSNPQKKQRNILRIGIQNLGSPLWGDDICCAENGGNSHSLTKFLYVLRGLLRTSLSACIITMPTHLIQNKAIIARVTTLSDVVVGLESFIGSERETNPLYKDYHGLIHIRQIPRLNNLICDESDVKDLAFKLKRKLFTIERLHLPPDLSDTVSRSSKMDLAESAKRLGPGCGMMAGGKKHLDF

Molecular target: T1, Flag-HA-ID2 (human) (UniProt Q02363)
T1 sequence: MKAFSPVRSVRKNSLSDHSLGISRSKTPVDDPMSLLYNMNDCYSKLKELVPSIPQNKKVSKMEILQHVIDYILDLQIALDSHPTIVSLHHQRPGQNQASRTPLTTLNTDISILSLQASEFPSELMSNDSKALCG
Assay: tandem Flag/HA affinity purification of Flag-HA-ID2 complexes from NCI-H1299 cells, LC-MS/MS; CRAPome specificity score

Q: For “78 kDa glucose-regulated protein (from UniProt P11021)”, which Calculated score [(#peptide*#xcorr)/(AveSC*MaxSC*Found# of Expt.)] is on record?
A: The Calculated score [(#peptide*#xcorr)/(AveSC*MaxSC*Found# of Expt.)] was 0.000131 and 5.32e-05.

Q: Which Calculated score [(#peptide*#xcorr)/(AveSC*MaxSC*Found# of Expt.)] does the source give for “Elongation factor 1-alpha 2 (from UniProt Q05639)” here?
A: Its Calculated score [(#peptide*#xcorr)/(AveSC*MaxSC*Found# of Expt.)] is 1.18e-05.

Q: With “GR75_HUMAN Stress-70 protein (from UniProt P38646)” as the molecule, how does the Calculated score [(#peptide*#xcorr)/(AveSC*MaxSC*Found# of Expt.)] read?
A: Its Calculated score [(#peptide*#xcorr)/(AveSC*MaxSC*Found# of Expt.)] is 1.1e-05.

Q: “Heat shock 70 kDa protein 1A/1B (from UniProt P0DMV8)” was tested. Which Calculated score [(#peptide*#xcorr)/(AveSC*MaxSC*Found# of Expt.)] did it give?
A: Its Calculated score [(#peptide*#xcorr)/(AveSC*MaxSC*Found# of Expt.)] is 4.5e-05.

Q: “Heat shock cognate 71 kDa protein (NP_694881) (from UniProt P11142-2)” was tested. Which Calculated score [(#peptide*#xcorr)/(AveSC*MaxSC*Found# of Expt.)] did it give?
A: Its Calculated score [(#peptide*#xcorr)/(AveSC*MaxSC*Found# of Expt.)] is 1.88e-05.

Q: For “Protein arginine N-methyltransferase 5 (from UniProt O14744) (enzyme)”, which Calculated score [(#peptide*#xcorr)/(AveSC*MaxSC*Found# of Expt.)] is on record?
A: The Calculated score [(#peptide*#xcorr)/(AveSC*MaxSC*Found# of Expt.)] was 6.8e-07.

Q: With “RING finger protein 113A (from UniProt O15541)” as the molecule, how does the Calculated score [(#peptide*#xcorr)/(AveSC*MaxSC*Found# of Expt.)] read?
A: Its Calculated score [(#peptide*#xcorr)/(AveSC*MaxSC*Found# of Expt.)] is 0.212.

Q: How did the Calculated score [(#peptide*#xcorr)/(AveSC*MaxSC*Found# of Expt.)] turn out when “Transcription factor E2-alpha (from UniProt P15923)” was run?
A: Its Calculated score [(#peptide*#xcorr)/(AveSC*MaxSC*Found# of Expt.)] is 23.8.

Q: Which Calculated score [(#peptide*#xcorr)/(AveSC*MaxSC*Found# of Expt.)] does the source give for Tubulin alpha-1B chain here?
A: The Calculated score [(#peptide*#xcorr)/(AveSC*MaxSC*Found# of Expt.)] was 1.25e-05.

Q: Which Calculated score [(#peptide*#xcorr)/(AveSC*MaxSC*Found# of Expt.)] does the source give for Tubulin beta chain here?
A: Its Calculated score [(#peptide*#xcorr)/(AveSC*MaxSC*Found# of Expt.)] is 7.15e-06.

Q: “heat shock 70 kDa protein 1-like (from UniProt P34931)” was tested. Which Calculated score [(#peptide*#xcorr)/(AveSC*MaxSC*Found# of Expt.)] did it give?
A: The Calculated score [(#peptide*#xcorr)/(AveSC*MaxSC*Found# of Expt.)] was 7.39e-06.

Q: How did the Calculated score [(#peptide*#xcorr)/(AveSC*MaxSC*Found# of Expt.)] turn out when “heat shock cognate 71 kDa protein isoform 1 (from UniProt P11142)” was run?
A: Its Calculated score [(#peptide*#xcorr)/(AveSC*MaxSC*Found# of Expt.)] is 3.81e-06.

Q: How did the Calculated score [(#peptide*#xcorr)/(AveSC*MaxSC*Found# of Expt.)] turn out when “transcription factor 12 isoform b (from UniProt Q99081)” was run?
A: The Calculated score [(#peptide*#xcorr)/(AveSC*MaxSC*Found# of Expt.)] was 7.71.

Q: tubulin beta-4B chain was tested. Which Calculated score [(#peptide*#xcorr)/(AveSC*MaxSC*Found# of Expt.)] did it give?
A: The Calculated score [(#peptide*#xcorr)/(AveSC*MaxSC*Found# of Expt.)] was 1.79e-05.

Q: How did the Calculated score [(#peptide*#xcorr)/(AveSC*MaxSC*Found# of Expt.)] turn out when B1 was run?
A: Its Calculated score [(#peptide*#xcorr)/(AveSC*MaxSC*Found# of Expt.)] is 0.0043.
